This passage reports Ka and Kd results from PMC4383501, “Computational Selection of RNA Aptamer against Angiopoietin-2 and Experimental Evaluation”.

Data set [1] deals with T1, Angiopoietin-2 (Ang2), active human (human, UniProt O15123 19-496). Briefly: SPR; kon 4.07e3 M-1s-1; koff 0.79e-3 s-1; SPR imaging, biotinylated RNA on streptavidin/BAT-PEG chip, 0.5 uM Ang2 in TBS pH 7.4, 9 min association, 6 min TBS rinse; temperature not stated. The following applies: protein: commercial; label: 5' biotin; single strand. On the technique in general: Surface plasmon resonance follows binding to a sensor surface in real time, without labels.
T1 sequence (O15123 19-496): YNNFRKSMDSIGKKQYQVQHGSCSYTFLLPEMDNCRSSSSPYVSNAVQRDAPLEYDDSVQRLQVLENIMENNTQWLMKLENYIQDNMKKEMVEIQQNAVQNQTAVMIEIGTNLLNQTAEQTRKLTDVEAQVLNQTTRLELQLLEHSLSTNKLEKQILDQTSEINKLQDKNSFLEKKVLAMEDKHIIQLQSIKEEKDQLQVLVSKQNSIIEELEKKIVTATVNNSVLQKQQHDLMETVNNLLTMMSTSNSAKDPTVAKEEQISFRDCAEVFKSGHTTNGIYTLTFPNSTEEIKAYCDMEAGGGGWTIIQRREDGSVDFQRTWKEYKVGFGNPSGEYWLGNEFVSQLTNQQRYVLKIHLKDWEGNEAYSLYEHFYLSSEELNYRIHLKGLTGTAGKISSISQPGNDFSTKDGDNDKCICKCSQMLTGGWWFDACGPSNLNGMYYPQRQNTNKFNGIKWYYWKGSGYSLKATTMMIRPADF

Data set [2] addresses T1, Angiopoietin-2 (Ang2), active human. Description: SPR; kon 6.03e3 M-1s-1; koff 0.61e-3 s-1; SPR imaging, biotinylated RNA on streptavidin/BAT-PEG chip, 0.5 uM Ang2 in TBS pH 7.4, 9 min association, 6 min TBS rinse; temperature not stated. As to conditions: protein: commercial; label: 5' biotin; single strand.
For data set [3] the target is unchanged. Briefly: SPR; kon 8.22e3 M-1s-1; koff 0.97e-3 s-1; SPR imaging, biotinylated RNA on streptavidin/BAT-PEG chip, 0.5 uM Ang2 in TBS pH 7.4, 9 min association, 6 min TBS rinse; temperature not stated. As to conditions: protein: commercial; label: 5' biotin; single strand.
For data set [4] the target is unchanged. Briefly: SPR; kon 10.02e3 M-1s-1; koff 1.39e-3 s-1; SPR imaging, biotinylated RNA on streptavidin/BAT-PEG chip, 0.5 uM Ang2 in TBS pH 7.4, 9 min association, 6 min TBS rinse; temperature not stated. The following applies: protein: commercial; label: 5' biotin; single strand.
Data set [5] concerns the target Angiopoietin-2 (human) (Homo sapiens (Human), UniProt O15123 19-496). Description: SPR; TBS pH 7.4, 25 C. As to conditions: label: 5'-biotin (5'-A5 is a spacer).
The target in data set [6] is T1, Angiopoietin-2 (Ang2), active human. Briefly: SPR; kon 1.66e3 M-1s-1; koff 4.99e-3 s-1; described as very weak, partly nonspecific adsorption; SPR imaging, biotinylated RNA on streptavidin/BAT-PEG chip, 0.5 uM Ang2 in TBS pH 7.4, 9 min association, 6 min TBS rinse; temperature not stated. As to conditions: protein: commercial; label: 5' biotin; single strand.

Broadly, the Kd is the equilibrium constant for the complex coming apart. A lower Kd goes with higher affinity.

Sequence of Angiopoietin-2 (human) (O15123 19-496): as above

For the molecule AAAAAUUAACCAUCAGAUCAUGGCCCCUGCCCUCUCAAGCACCAC (ssRNA) [Seq2_12_35 (biotin-A5)], the Ka in data set [1] was 5.15 10^6 M^-1.
For AAAAAGAGGACGAUGCCGACUAGCCUCAUCAGCUCAUGUCCCCCUC (ssRNA) [Seq15_12_35 (biotin-A5)], the Ka in data set [2] is 9.89 10^6 M^-1.
For AAAAAGAGGACGAUGCGGAUUAGCCUCAUCAGCUCAUGUGCCGCUC (ssRNA) [Seq15_15_38 (biotin-A5)], the Ka in data set [3] was 8.47 10^6 M^-1.
With AAAAAACUAGCCUCAUCAGCUCAUGUGCCCCUCCGCCUGGAUCAC (ssRNA) [Seq1 (biotin-A5)], the Ka in data set [4] is 7.23 10^6 M^-1.
Take AAAAAACUAGCCUCAUCAGCUCAUGUGCCCCUCCGCCUGGAUCAC (ssRNA) [Seq1]: binding in data set [5] was put at a Kd of 0.138 µM.
AAAAAACUCGAACAUUUCCACUAACCAACCAUACUAAAGCACCGC (ssRNA) [Seq16 (biotin-A5), Ang1-specific aptamer]: the Ka in data set [6] was 0.33 10^6 M^-1.
As for AAAAAACUCGAACAUUUCCACUAACCAACCAUACUAAAGCACCGC (ssRNA) [Seq16 (Ang1 aptamer / negative control)], in data set [5], the dissociation constant Kd stood at 3.03 µM.
